Key:
Endothelin-1 = test: Steady-state kinetics of endothelin-1 cleavage, stopped assay with RP-HPLC; type: biochemical
Procedure: Kinetic parameters for cleavage of endothelin-1 by NEP were determined using a stopped assay in which the amount of substrate cleaved was measured using reversed-phase HPLC (RP-HPLC). Endothelin-1 was incubated at 12.5–200 µM in the presence of wild type NEP or NEPv and reactions were stopped after 10 min at 37°C by the addition of an equal volume of 1∶1∶1 water:acetonitrile:TFA containing 2 mM tris(2-carboxyethyl)phosphine (Thermo Scientific). RP-HPLC spectra were recorded using an Agilent 1260 Infinity system. Injections of 20 µL were made for each sample and analytes were separated by elution on an Agilent Polaris C8-A stationary phase column (4.6×100 mm, 3 µm) at 1.5 mL min^−1 using a linear binary gradient of 10–90% acetonitrile in water with 0.1% (v/v) TFA over 15 minutes at 40°C. Signal intensity for intact endothelin-1 was monitored at 210 nm and relative peak area was determined by manual integration of the baseline. Kinetic parameters were derived from the activity data as described above.

Aβ1–40 = test: Endpoint degradation assay with ELISA read-out; type: biochemical, human; conditions: 1 hour at room temperature; Aβ40 ELISA
Procedure: (§1) Supplementary file pone.0104001.s001.tif: Figure S1 Degradation of Aβ1–40 and Aβ1–42 by NEP wild-type and NEPv. Measurement of the degredation of Aβ1–40 (A) and Aβ1–42 (B) was performed by incubating peptide and either wild-type NEP (▪) or NEPv (Δ) for 1 hour at room temperature. The reaction was stopped by the addition of 1.10-phenanthroline to a final concentration of 10 µM. 50 µl (Aβ40 analysis) or 100 µl (Aβ42 analysis) of the reaction mix was transferred to an ELISA plate. Aβ40 and Aβ42 concentrations after degradation were determined using Invitrogen human Aβ40 ELISA kit (Invitrogen, California, US), and Innotest β-amyloid RUO (1–42) ELISA (Innogenetics, Gent, Belgium). […] (TIF) Click here for additional data file.

Aβ1–42 = target: T1, Aβ1–42 (Homo sapiens, UniProt P05067); test: Endpoint degradation assay with ELISA read-out; type: biochemical; conditions: 1 hour at room temperature; Aβ42 ELISA
T1 construct: Aβ 1-42^a
Procedure: as §1

[1] = substrate Endothelin-1 (unlabelled), RP-HPLC, 10 min at 37°C

T1 sequence (P05067 672-713): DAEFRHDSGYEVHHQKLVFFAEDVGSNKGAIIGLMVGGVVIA

B1: NEPv: lead variant at round 2, human NEP ectodomain with the two mutations G399V and G714K (protein, UniProt P08473 52-750, looked up, variant G399V G714K)
extracellular domain: YDDGICKSSDCIKSAARLIQNMDATTEPCTDFFKYACGGWLKRNVIPETSSRYGNFDILRDELEVVLKDVLQEPKTEDIVAVQKAKALYRSCINESAIDSRGGEPLLKLLPDIYGWPVATENWEQKYGASWTAEKAIAQLNSKYGKKVLINLFVGTDDKNSVNHVIHIDQPRLGLPSRDYYECTGIYKEACTAYVDFMISVARLIRQEERLPIDENQLALEMNKVMELEKEIANATAKPEDRNDPMLLYNKMTLAQIQNNFSLEINGKPFSWLNFTNEIMSTVNISITNEEDVVVYAPEYLTKLKPILTKYSARDLQNLMSWRFIMDLVSSLSRTYKESRNAFRKALYVTTSETATWRRCANYVNGNMENAVGRLYVEAAFAGESKHVVEDLIAQIREVFIQTLDDLTWMDAETKKRAEEKALAIKERIGYPDDIVSNDNKLNNEYLELNYKEDEYFENIIQNLKFSQSKQLKKLREKVDKDEWISGAAVVNAFYSSGRNQIVFPAGILQPPFFSAQQSNSLNYGGIGMVIGHEITHGFDDNGRNFNKDGDLVDWWTQQSASNFKEQSQCMVYQYGNFSWDLAGGQHLNGINTLGENIADNGGLGQAYRAYQNYIKKNGEEKLLPGLDLNHKQLFFLNFAQVWCGTYRPEYAVNSIKTDVHSPKNFRIIGTLQNSAEFSEAFHCRKNSYMNPEKKCRVW
modifications: extracellular domain
Question: How did the Km (Endothelin-1; [1]) turn out when B1 was run?
Answer: Its Km is 57 ± 20 µM.

Question: What about the kcat (Endothelin-1; [1]) of the same molecule?
Answer: Its kcat is 0.059 ± 0.008 s⁻¹.

Question: What about the “Fold change in kcat/KM” value (Endothelin-1; substrate Endothelin-1, ratio of wild-type NEP kcat/KM to that of the mutant) of the same molecule?
Answer: The value was 13.

Question: What about the EC50 (Aβ1–40) of the same molecule?
Answer: Its EC50 is 21.3 nM.

Question: What about the EC50 (Aβ1–42) of the same molecule?
Answer: Its EC50 is 19.5 nM.

— paper PMC4121237, “Engineering Neprilysin Activity and Specificity to Create a Novel Therapeutic for Alzheimer’s Disease” (PLoS ONE, 2014)
